Data set [1] deals with the molecule itself. The data set is described as follows: negative-stain transmission electron microscopy; as a2 but with 2-5 mM ATP or ATPγS, with or without oligo(dT)30.
Data set [2] concerns the molecule itself. The data set is described as follows: SEC; Superdex200 HR 10/30, 20 mM Tris pH 7.5, 150 mM KCl, 1 mM DTT; about 40 ug RECQ1 loaded at 1 uM; alone, with oligo(dT)40 or oligo(dT)30 and/or 1 mM ATP or ATPγS in the elution buffer; also 100-500 mM salt and 0.1-35 uM protein. On the technique in general: SEC sorts molecules by how far they enter the pores of the column.

The text below walks through data of publication PMC1769423, “Different Quaternary Structures of Human RECQ1 Are Associated with Its Dual Enzymatic Activity” (PLoS Biology, 2007).

B1: RECQ1(K119R) (human RECQ1, ATPase-deficient Walker A mutant) (enzyme, UniProt P46063 1-649, looked up)
chain: MASVSALTEELDSITSELHAVEIQIQELTERQQELIQKKKVLTKKIKQCLEDSDAGASNEYDSSPAAWNKEDFPWSGKVKDILQNVFKLEKFRPLQLETINVTMAGKEVFLVMPTGGGRSLCYQLPALCSDGFTLVICPLISLMEDQLMVLKQLGISATMLNASSSKEHVKWVHAEMVNKNSELKLIYVTPEKIAKSKMFMSRLEKAYEARRFTRIAVDEVHCCSQWGHDFRPDYKALGILKRQFPNASLIGLTATATNHVLTDAQKILCIEKCFTFTASFNRPNLYYEVRQKPSNTEDFIEDIVKLINGRYKGQSGIIYCFSQKDSEQVTVSLQNLGIHAGAYHANLEPEDKTTVHRKWSANEIQVVVATVAFGMGIDKPDVRFVIHHSMSKSMENYYQESGRAGRDDMKADCILYYGFGDIFRISSMVVMENVGQQKLYEMVSYCQNISKCRRVLMAQHFDEVWNSEACNKMCDNCCKDSAFERKNITEYCRDLIKILKQAEELNEKLTPLKLIDSWMGKGAAKLRVAGVVAPTLPREDLEKIIAHFLIQQYLKEDYSFTAYATISYLKIGPKANLLNNEAHAITMQVTKSTQNSFRAESSQTCHSEQGDKKMEEKNSGNFQKKAANMLQQSGSKNTGAKKRKIDDA
notes: human RECQ1 helicase (alias RECQL), the 649-amino acid variant, with K119R in ATPase motif I (Walker A box); also called RECQ1 K119R mutant; His6-K119R RECQ1 mutant; source: baculovirus/Sf9 cells, purified; not shown: His6, N-terminal, kept
Take B1: the binding result in data set [1] is given as “binds”.

B2: untagged RECQ1 (utRECQ1; human RECQ1 helicase after removal of the N-terminal His6-tag) (enzyme, UniProt P46063 1-649, looked up)
chain: MASVSALTEELDSITSELHAVEIQIQELTERQQELIQKKKVLTKKIKQCLEDSDAGASNEYDSSPAAWNKEDFPWSGKVKDILQNVFKLEKFRPLQLETINVTMAGKEVFLVMPTGGGKSLCYQLPALCSDGFTLVICPLISLMEDQLMVLKQLGISATMLNASSSKEHVKWVHAEMVNKNSELKLIYVTPEKIAKSKMFMSRLEKAYEARRFTRIAVDEVHCCSQWGHDFRPDYKALGILKRQFPNASLIGLTATATNHVLTDAQKILCIEKCFTFTASFNRPNLYYEVRQKPSNTEDFIEDIVKLINGRYKGQSGIIYCFSQKDSEQVTVSLQNLGIHAGAYHANLEPEDKTTVHRKWSANEIQVVVATVAFGMGIDKPDVRFVIHHSMSKSMENYYQESGRAGRDDMKADCILYYGFGDIFRISSMVVMENVGQQKLYEMVSYCQNISKCRRVLMAQHFDEVWNSEACNKMCDNCCKDSAFERKNITEYCRDLIKILKQAEELNEKLTPLKLIDSWMGKGAAKLRVAGVVAPTLPREDLEKIIAHFLIQQYLKEDYSFTAYATISYLKIGPKANLLNNEAHAITMQVTKSTQNSFRAESSQTCHSEQGDKKMEEKNSGNFQKKAANMLQQSGSKNTGAKKRKIDDA
notes: human RECQ1 helicase (alias RECQL), the 649-amino acid variant; also called untagged wild-type RECQ1; source: baculovirus/Sf9 cells, purified; not shown: His6, N-terminal, cleaved
B2: the binding result in data set [2] is on record as “binds”.
